Source: PMC11619453

Target: ORF59HA full-length (KSHV DNA polymerase processivity factor ORF59 with an in-frame HA tag, from iSLK.BAC16-ORF59HA) (Kaposi's sarcoma-associated herpesvirus (KSHV, human herpesvirus 8), BAC16)
Sequence (F5HID2 whole entry): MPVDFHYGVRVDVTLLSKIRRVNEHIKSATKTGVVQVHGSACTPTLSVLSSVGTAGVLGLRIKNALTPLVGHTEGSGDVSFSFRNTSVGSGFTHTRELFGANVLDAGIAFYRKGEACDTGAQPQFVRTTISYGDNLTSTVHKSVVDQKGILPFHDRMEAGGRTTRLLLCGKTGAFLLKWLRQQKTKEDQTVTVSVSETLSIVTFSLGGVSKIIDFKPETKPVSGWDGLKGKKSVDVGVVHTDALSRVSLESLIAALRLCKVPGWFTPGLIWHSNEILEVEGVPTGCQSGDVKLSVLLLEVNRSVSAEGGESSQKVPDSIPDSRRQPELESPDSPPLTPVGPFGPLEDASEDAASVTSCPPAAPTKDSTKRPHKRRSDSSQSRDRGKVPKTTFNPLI

B1: ORF57 (KSHV mRNA transcript accumulation protein, MTA) (natural protein)
chain: MVQAMIDMDIMKGILEDSVSSSEFDESRDDETDAPTLEDEQLSEPAEPPADERIRGTQSAQGIPPPLGRIPKKSQGRSQLRSEIQFCSPLSRPRSPSPVNRYGKKIKFGTAGQNTRPPPEKRPRRRPRDRLQYGRTTRGGQCRAAPKRATRRPQVNCQRQDDDVRQGVSDAVKKLRLPASMIIDGESPRFDDSIIPRHHGACFNVFIPAPPSHVPEVFTDRDITALIRAGGKDDELINKKISAKKIDHLHRQMLSFVTSRHNQAYWVSCRRETAAAGGLQTLGAFVEEQMTWAQTVVRHGGWFDEKDIDIILDTAIFVCNAFVTRFRLLHLSCVFDKQSELALIKQVAYLVAMGNRLVEACNLLGEVKLNFRGGLLLAFVLTIPGMQSRRSISARGQELFRTLLEYYRPGDVMGLLNVIVMEHHSLCRNSECAAATRAAMGSAKFNKGLFFYPLS
  viral DNA accumulation (qPCR of ORF26, 72 hpi) in 59HA-WT iSLK cells transfected with 30–100DsRed, against control cells: 5 fold
